Assay [1] addresses myh9_human MYH9 (UniProt P35579).
The target is the same in assay [2]. This is another data set of the same source.

myh9_human MYH9, sequence (P35579 whole entry): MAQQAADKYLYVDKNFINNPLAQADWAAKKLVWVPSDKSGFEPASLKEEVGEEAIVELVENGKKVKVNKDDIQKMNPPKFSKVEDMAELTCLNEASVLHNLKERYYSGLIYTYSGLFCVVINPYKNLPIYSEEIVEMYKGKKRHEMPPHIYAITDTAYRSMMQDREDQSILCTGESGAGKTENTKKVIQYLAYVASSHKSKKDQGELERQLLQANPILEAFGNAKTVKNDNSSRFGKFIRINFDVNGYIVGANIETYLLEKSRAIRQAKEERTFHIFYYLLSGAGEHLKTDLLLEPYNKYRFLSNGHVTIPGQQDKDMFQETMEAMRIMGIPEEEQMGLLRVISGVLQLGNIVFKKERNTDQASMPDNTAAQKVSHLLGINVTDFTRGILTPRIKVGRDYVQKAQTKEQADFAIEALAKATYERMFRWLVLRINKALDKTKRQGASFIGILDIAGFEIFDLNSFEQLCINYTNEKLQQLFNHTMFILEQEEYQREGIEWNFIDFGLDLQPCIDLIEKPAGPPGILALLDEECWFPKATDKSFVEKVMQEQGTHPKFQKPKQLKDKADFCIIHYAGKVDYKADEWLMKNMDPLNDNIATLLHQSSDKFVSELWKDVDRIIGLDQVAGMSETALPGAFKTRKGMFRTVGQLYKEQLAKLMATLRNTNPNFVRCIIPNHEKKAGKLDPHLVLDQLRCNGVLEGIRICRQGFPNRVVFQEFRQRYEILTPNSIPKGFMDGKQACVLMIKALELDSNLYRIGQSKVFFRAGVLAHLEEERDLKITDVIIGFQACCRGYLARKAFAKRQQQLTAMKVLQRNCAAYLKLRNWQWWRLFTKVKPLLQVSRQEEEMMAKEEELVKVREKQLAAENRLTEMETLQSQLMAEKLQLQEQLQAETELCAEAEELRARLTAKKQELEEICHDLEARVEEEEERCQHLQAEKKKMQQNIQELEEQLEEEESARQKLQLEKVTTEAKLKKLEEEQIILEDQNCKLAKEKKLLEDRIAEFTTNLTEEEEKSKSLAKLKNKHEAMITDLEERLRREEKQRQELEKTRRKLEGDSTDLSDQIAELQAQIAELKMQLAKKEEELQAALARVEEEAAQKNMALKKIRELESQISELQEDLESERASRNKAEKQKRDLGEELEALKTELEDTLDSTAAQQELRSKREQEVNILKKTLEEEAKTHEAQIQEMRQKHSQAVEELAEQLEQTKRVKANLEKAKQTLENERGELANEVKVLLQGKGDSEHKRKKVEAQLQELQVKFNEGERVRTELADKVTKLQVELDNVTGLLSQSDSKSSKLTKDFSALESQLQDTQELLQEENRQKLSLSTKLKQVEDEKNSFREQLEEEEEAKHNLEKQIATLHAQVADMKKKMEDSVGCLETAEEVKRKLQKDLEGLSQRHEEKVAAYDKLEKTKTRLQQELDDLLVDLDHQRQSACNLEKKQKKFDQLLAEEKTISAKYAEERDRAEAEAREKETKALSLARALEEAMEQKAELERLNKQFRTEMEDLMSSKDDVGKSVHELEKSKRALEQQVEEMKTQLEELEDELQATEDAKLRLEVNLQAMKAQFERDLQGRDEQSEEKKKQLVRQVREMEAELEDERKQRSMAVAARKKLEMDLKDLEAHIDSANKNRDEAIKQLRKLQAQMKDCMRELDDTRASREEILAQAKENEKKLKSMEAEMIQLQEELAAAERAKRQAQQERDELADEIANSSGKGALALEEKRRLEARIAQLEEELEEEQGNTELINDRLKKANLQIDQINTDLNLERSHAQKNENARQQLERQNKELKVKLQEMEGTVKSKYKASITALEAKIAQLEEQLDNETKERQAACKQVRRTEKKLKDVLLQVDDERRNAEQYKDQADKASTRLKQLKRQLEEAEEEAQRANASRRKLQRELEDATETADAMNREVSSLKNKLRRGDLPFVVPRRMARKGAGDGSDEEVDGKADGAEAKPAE
Protein S100-A4 (Homo sapiens), P26447 C3S;F45W;C81S;C86S, sequence (P26447 whole entry C3S/F45W/C81S/C86S): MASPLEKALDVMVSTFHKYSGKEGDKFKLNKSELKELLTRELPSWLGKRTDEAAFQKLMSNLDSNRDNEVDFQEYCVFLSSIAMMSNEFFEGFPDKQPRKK

For the substance “Protein S100-A4 (Homo sapiens), P26447 F45W”, the “effect of a mutation on the interaction” value in the assay with myh9_human MYH9 [1] is “with no effect”. In the case of “Protein S100-A4 (Homo sapiens), P26447 C3S;F45W;C81S;C86S”, the “effect of a mutation on the interaction” value in the assay with myh9_human MYH9 [2] is reported as “decreasing interaction strength”.

Source of the values: IntAct's records for PubMed 22460785.
